± gives the standard deviation of the averaged measurements.
Experiment: total protein half-life in vivo (active degradation + dilution); higher = more stable protein
[1] = E. coli NCM3722 delta-clpP, growth: N-lim chemostat, doubling time 6 h
[2] = E. coli NCM3722 delta-hslV, growth: N-lim chemostat, doubling time 6 h
[3] = wild type E. coli NCM3722, growth: C-lim chemostat, doubling time 3 h
[4] = wild type E. coli NCM3722, growth: C-lim chemostat, doubling time 6 h
[5] = wild type E. coli NCM3722, growth: P-lim chemostat, doubling time 6 h
[6] = wild type E. coli NCM3722, growth: P-lim chemostat, doubling time 12 h
[7] = E. coli NCM3722 delta-clpP delta-lon delta-hslV, growth: N-lim chemostat, doubling time 6 h
[8] = E. coli NCM3722 delta-lon, growth: N-lim chemostat, doubling time 6 h
[9] = E. coli NCM3722 delta-smpB, growth: N-lim chemostat, doubling time 6 h
[10] = wild type E. coli NCM3722, growth: N-lim chemostat, doubling time 6 h
[11] = wild type E. coli NCM3722, growth: N-lim chemostat, doubling time 12 h
[12] = wild type E. coli NCM3722, growth: C-lim chemostat, doubling time 12 h

## MIKLSEKGVFLASNNEIIAEEHFTGEIKKEEAKKGTIAWSILSSHNTSGNMDKLKIKFDSLASHDITFVGIVQTAKASGMERFPLPYVLTNCHNSLCAVGGTINGDDHVFGLSAAQRYGGIFVPPHIAVIHQYMREMMAGGGKMILGSDSHTRYGALGTMAVGEGGGELVKQLLNDTWDIDYPGVVAVHLTGKPAPYVGPQDVALAIIGAVFKNGYVKNKVMEFVGPGVSALSTDFRNSVDVMTTETTCLSSVWQTDEEVHNWLALHGRGQDYCQLNPQPMAYYDGCISVDLSAIKPMIALPFHPSNVYEIDTLNQNLTDILREIEIESERVAHGKAKLSLLDKVENGRLKVQQGIIAGCSGGNYENVIAAANALRGQSCGNDTFSLAVYPSSQPVFMDLAKKGVVADLIGAGAIIRTAFCGPCFGAGDTPINNGLSIRHTTRNFPNREGSKPANGQMSAVALMDARSIAATAANGGYLTSASELDCWDNVPEYAFDVTPYKNRVYQGFVKGATQQPLIYGPNIKDWPELGALTDNIVLKVCSKILDEVTTTDELIPSGETSSYRSNPIGLAEFTLSRRDPGYVSRSKATAELENQRLAGNVSELTEVFARIKQIAGQEHIDPLQTEIGSMVYAVKPGDGSAREQAASCQRVIGGLANIAEEYATKRYRSNVINWGMLPLQMAEVPTFEVGDYIYIPGIKAALDNPGTTFKGYVIHEDAPVTEITLYMESLTAEEREIIKAGSLINFNKNRQM
[1]
  total protein half-life in vivo: 5.63 h
[2]
  total protein half-life in vivo: 6.45 h
[3]
  total protein half-life in vivo: 1.12 h
[4]
  total protein half-life in vivo: 1.87 ± 0.76 h
[5]
  total protein half-life in vivo: 2.37 h
[6]
  total protein half-life in vivo: 1.31 ± 0.42 h

## MIKNLPQIVLLNIVGLALFLSWYIPVNHGFWLPIDADIFYFFNQKLVESKAFLWLVALTNNRAFDGCSLLAMGMLMLSFWLKENAPGRRRIVIIGLVMLLTAVVLNQLGQALIPVKRASPTLTFTDINRVSELLSVPTKDASRDSFPGDHGMMLLIFSAFMWRYFGKVAGLIALIIFVVFAFPRVMIGAHWFTDIIVGSMTVILIGLPWVLLTPLSDRLITFFDKSLPGKNKHFQNK
[7]
  total protein half-life in vivo: 6.44 ± 0.069 h
[2]
  total protein half-life in vivo: 5.96 h
[8]
  total protein half-life in vivo: 5.5 ± 0.33 h
[9]
  total protein half-life in vivo: 4.98 ± 0.75 h
[3]
  total protein half-life in vivo: > 4 h
[4]
  total protein half-life in vivo: 5.87 ± 0.17 h
[10]
  total protein half-life in vivo: 5.91 h
[11]
  total protein half-life in vivo: 9.71 h
[5]
  total protein half-life in vivo: 5.76 ± 0.068 h
[6]
  total protein half-life in vivo: 14.4 h

## MIKQTIVALLLSVGASSVFAAGTVKVFSNGSSEAKTLTGAEHLIDLVGQPRLANSWWPGAVISEELATAAALRQQQALLTRLAEQGADSSADDAAAINALRQQIQALKVTGRQKINLDPDIVRVAERGNPPLQGNYTLWVGPPPSTVTLFGLISRPGKQPFTPGRDVASYLSDQSLLSGADRSYAWVVYPDGRTQKAPVAYWNKRHVEPMPGSIIYVGLADSVWSETPDALNADILQTLTQRIPQ
[7]
  total protein half-life in vivo: 7.07 h
[1]
  total protein half-life in vivo: 6.22 h
[8]
  total protein half-life in vivo: 7.193 ± 0.064 h
[9]
  total protein half-life in vivo: 5.1 ± 0.077 h

## MIKTTPHKIVILMGILLSPSVFATDINVEFTATVKATTCNITLTGNNVTNDGNNNYTLRIPKMGLDKIANKTTESQADFKLVASGCSSGISWIDTTLTGNASSSSPKLIIPQSGDSSSTTSNIGMGFKKRTTDDATFLKPNSAEKIRWSTDEMQPDKGLEMTVALRETDAGQGVPGNFRALATFNFIYQ
[12]
  total protein half-life in vivo: 10.5 h

## MIKVLFFAQVRELVGTDATEVAADFPTVEALRQHMAAQSDRWALALEDGKLLAAVNQTLVSFDHPLTDGDEVAFFPPVTGG
[1]
  total protein half-life in vivo: 4.52 ± 0.36 h
[2]
  total protein half-life in vivo: 4.61 ± 0.15 h
[8]
  total protein half-life in vivo: 5.83 ± 0.47 h
[9]
  total protein half-life in vivo: 4.6 ± 0.21 h
[3]
  total protein half-life in vivo: 2.96 ± 0.2 h
[4]
  total protein half-life in vivo: 4.76 ± 0.41 h
[12]
  total protein half-life in vivo: 9.64 ± 0.42 h
[10]
  total protein half-life in vivo: 4.25 ± 0.17 h
[11]
  total protein half-life in vivo: 7.72 ± 0.16 h
[5]
  total protein half-life in vivo: 5.12 ± 0.3 h
[6]
  total protein half-life in vivo: 11.7 ± 0.55 h

## MIKVYGVPGWGSTISELMLTLADIPYQFVDVSGFDHEGASRELLKTLNPLCQVPTLALENDEIMTETAAIALMVLDRRPDLAPPVGRAERQLFQRLLVWLVANVYPTFTFADYPERWAPDAPEQLKKNVIEYRKSLYIWLNSQLTAEPYAFGEQLTLVDCYLCTMRTWGPGHEWFQDNATNISAIADAVCQLPKLQEVLKRNEII
[7]
  total protein half-life in vivo: 5.47 ± 0.78 h
[1]
  total protein half-life in vivo: 4.57 ± 0.21 h
[2]
  total protein half-life in vivo: 4.93 ± 0.096 h
[8]
  total protein half-life in vivo: 4.6 h
[9]
  total protein half-life in vivo: 4.48 ± 0.6 h
[4]
  total protein half-life in vivo: 4.99 h
[10]
  total protein half-life in vivo: 4.76 h
[5]
  total protein half-life in vivo: 6.17 h
[6]
  total protein half-life in vivo: 12.2 h

## MILLIDNYDSFTWNLYQYFCELGADVLVKRNDALTLADIDALKPQKIVISPGPCTPDEAGISLDVIRHYAGRLPILGVCLGHQAMAQAFGGKVVRAAKVMHGKTSPITHNGEGVFRGLANPLTVTRYHSLVVEPDSLPACFDVTAWSETREIMGIRHRQWDLEGVQFHPESILSEQGHQLLANFLHR
[7]
  total protein half-life in vivo: 5.21 ± 0.68 h
[1]
  total protein half-life in vivo: 5.02 h
[2]
  total protein half-life in vivo: 3.72 ± 1.2 h
[8]
  total protein half-life in vivo: 4.94 ± 0.68 h
[9]
  total protein half-life in vivo: 4.35 ± 0.22 h
[3]
  total protein half-life in vivo: 3.31 ± 0.049 h
[4]
  total protein half-life in vivo: 5.88 ± 0.4 h
[12]
  total protein half-life in vivo: 10 h
[11]
  total protein half-life in vivo: 8.41 ± 0.11 h
[5]
  total protein half-life in vivo: 6.18 ± 0.066 h
[6]
  total protein half-life in vivo: 12.9 ± 0.99 h

## MILSAFSLEGKVAVVTGCDTGLGQGMALGLAQAGCDIVGINIVEPTETIEQVTALGRRFLSLTADLRKIDGIPALLDRAVAEFGHIDILVNNAGLIRREDALEFSEKDWDDVMNLNIKSVFFMSQAAAKHFIAQGNGGKIINIASMLSFQGGIRVPSYTASKSGVMGVTRLMANEWAKHNINVNAIAPGYMATNNTQQLRADEQRSAEILDRIPAGRWGLPSDLMGPIVFLASSASDYVNGYTIAVDGGWLAR
[7]
  total protein half-life in vivo: 3.57 ± 0.82 h
[1]
  total protein half-life in vivo: 2.06 ± 0.13 h
[2]
  total protein half-life in vivo: 2.8 ± 0.69 h
[8]
  total protein half-life in vivo: 2.48 ± 0.36 h
[9]
  total protein half-life in vivo: 2.31 ± 0.11 h
[3]
  total protein half-life in vivo: 2.75 ± 0.077 h
[4]
  total protein half-life in vivo: 4.15 ± 0.16 h
[12]
  total protein half-life in vivo: 7.26 ± 0.34 h
[10]
  total protein half-life in vivo: 2.385 ± 0.018 h
[11]
  total protein half-life in vivo: 3.87 ± 0.81 h
[5]
  total protein half-life in vivo: 5.03 ± 0.081 h
[6]
  total protein half-life in vivo: 10.5 ± 0.36 h

## MINSPRVCIQVQSVYIEAQSSPDNERYVFAYTVTIRNLGRAPVQLLGRYWLITNGNGRETEVQGEGVVGVQPLIAPGEEYQYTSGAIIETPLGTMQGHYEMIDENGVPFSIDIPVFRLAVPTLIH
[7]
  total protein half-life in vivo: 6.35 ± 0.25 h
[1]
  total protein half-life in vivo: 1.66 ± 0.39 h
[2]
  total protein half-life in vivo: 0.615 h
[8]
  total protein half-life in vivo: 1.4 h
[9]
  total protein half-life in vivo: 1.24 ± 0.41 h
[3]
  total protein half-life in vivo: 1.4 ± 0.14 h
[4]
  total protein half-life in vivo: 2.43 h
[12]
  total protein half-life in vivo: 3.11 ± 0.32 h
[10]
  total protein half-life in vivo: 1.65 h
[11]
  total protein half-life in vivo: 1.98 h
[5]
  total protein half-life in vivo: 2.29 ± 0.19 h
[6]
  total protein half-life in vivo: 4.37 ± 0.13 h

— the supplement of paper PMC11246515
